Data as given in article PMC11320123, “Unveiling the molecular mechanisms of the type IX secretion system's response regulator: Structural and functional insights” (PNAS Nexus, 2024).
Substitutions are numbered along the chain they refer to. Names and notes keep the numbering of the source.

Tests used:
[1] = molecular target: T1, PorXFJ (Flavobacterium johnsoniae, UniProt A5FFU4); conditions: phosphate analogue; bound at REC phosphorylation site (Asp54) and at APS catalytic site near Thr271; primitive orthorhombic crystal form
T1 construct: gene Fjoh_2906
T1 sequence (A5FFU4 1-517): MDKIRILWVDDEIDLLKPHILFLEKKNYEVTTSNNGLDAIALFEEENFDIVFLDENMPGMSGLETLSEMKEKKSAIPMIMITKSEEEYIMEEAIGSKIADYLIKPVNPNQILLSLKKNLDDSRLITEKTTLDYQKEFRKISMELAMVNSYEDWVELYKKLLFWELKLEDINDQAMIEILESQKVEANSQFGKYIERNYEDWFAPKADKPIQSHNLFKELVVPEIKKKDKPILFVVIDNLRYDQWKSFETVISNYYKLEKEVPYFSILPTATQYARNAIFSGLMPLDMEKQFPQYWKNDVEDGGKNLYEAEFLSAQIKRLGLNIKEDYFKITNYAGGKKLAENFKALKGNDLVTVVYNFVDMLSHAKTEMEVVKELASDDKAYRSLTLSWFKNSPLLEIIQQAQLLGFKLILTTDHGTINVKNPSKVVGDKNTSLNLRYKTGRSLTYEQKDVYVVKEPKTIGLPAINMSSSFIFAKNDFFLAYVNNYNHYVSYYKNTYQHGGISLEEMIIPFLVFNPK

[2] = molecular target: T2, THB + APS truncation mutant of PorXFJ (Flavobacterium johnsoniae, UniProt A5FFU4); test: phosphodiesterase assay; assay type: biochemical; conditions: zinc-dependent
T2 construct: gene Fjoh_2906; REC domain truncated, residues 126–end; ~46 kDa; E. coli BL21
T2 sequence (A5FFU4 126-517): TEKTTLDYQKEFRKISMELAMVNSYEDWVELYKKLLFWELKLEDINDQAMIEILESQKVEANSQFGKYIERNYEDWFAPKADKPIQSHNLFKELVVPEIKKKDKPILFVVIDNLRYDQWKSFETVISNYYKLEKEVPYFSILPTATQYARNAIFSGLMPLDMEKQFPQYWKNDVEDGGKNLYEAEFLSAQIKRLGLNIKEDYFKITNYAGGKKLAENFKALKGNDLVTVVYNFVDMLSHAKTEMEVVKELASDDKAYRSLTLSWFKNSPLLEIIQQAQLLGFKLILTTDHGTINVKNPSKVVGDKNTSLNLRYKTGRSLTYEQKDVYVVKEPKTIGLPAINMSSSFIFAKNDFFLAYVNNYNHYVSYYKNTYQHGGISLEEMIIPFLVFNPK

[3] = molecular target: the molecule itself; test: SEC; protein incubated with acetyl phosphate (AcP) in the presence of magnesium; Superdex200inc 10/300 GL for wild type and point mutants, Superdex75inc 10/300 GL for truncations; monomer to dimer
[4] = molecular target: the molecule itself; test: as above; remark: listed apart in the source
[5] = molecular target: the molecule itself; test: SEC; protein incubated with zinc only (no AcP); Superdex200inc 10/300 GL for wild type and point mutants, Superdex75inc 10/300 GL for truncations; monomer to dimer
[6] = molecular target: the molecule itself; test: as above; remark: listed apart in the source

[F][Be-]([F])[F] [BeF3]
X-ray co-crystal structure [1]: we have co-crystallized PorXFJ with the phosphate analog, BeF3

O=[N+]([O-])c1ccc(OP(=O)(O)Oc2ccc([N+](=O)[O-])cc2)cc1 [bis(p-nitrophenyl) phosphate]
phosphodiesterase assay [2]: full-length PorXFJ and the THB + APS truncation mutant

B1: PorX from Flavobacterium johnsoniae (PorXFJ), wild type, full length (natural protein, UniProt A5FFU4 1-517, looked up)
chain: T1 sequence (A5FFU4 1-517)
notes: also called WT; Fjoh_2906; source: E. coli BL21, purified (Ni-NTA, thrombin cleavage, SEC); not shown: 10x-His, N-terminal, cleaved
binding result [3]: binds

B2: PorXFJ T271V (APS domain catalytically inactive mutant) (natural protein, UniProt A5FFU4 1-517, looked up)
chain: T1 sequence (A5FFU4 1-517) with T271V
notes: source: E. coli BL21, purified (Ni-NTA, thrombin cleavage, SEC); not shown: 10x-His, N-terminal, cleaved
binding result [4]: binds

B3: PorXFJ S384A/S388E double mutant (APS domain dimerization interface) (natural protein, UniProt A5FFU4 1-517, looked up)
chain: T1 sequence (A5FFU4 1-517) with S384A, S388E
notes: also called S348A/S388E (as printed once); source: E. coli BL21, purified (Ni-NTA, thrombin cleavage, SEC); not shown: 10x-His, N-terminal, cleaved
binding result [4]: binds

B4: PorXFJ L113E (REC domain dimerization interface mutant) (natural protein, UniProt A5FFU4 1-517, looked up)
chain: T1 sequence (A5FFU4 1-517) with L113E
notes: as for B2
binding result [5]: binds

B5: PorXFJ D360A/H364A double mutant (zinc coordination, Zn1 site) (natural protein, UniProt A5FFU4 1-517, looked up)
chain: T1 sequence (A5FFU4 1-517) with D360A, H364A
notes: as for B2
binding result [4]: binds

B6: PorXFJ D54A (REC domain phosphorylation-null mutant) (natural protein, UniProt A5FFU4 1-517, looked up)
chain: T1 sequence (A5FFU4 1-517) with D54A
notes: as for B2
binding result [5]: binds

B7: PorXFJ APS + THB domains (126–end) (domain or fragment, UniProt A5FFU4 126-517, looked up)
chain: T2 sequence (A5FFU4 126-517)
notes: also called THB + APS truncation mutant; THB + APS domains; source: E. coli BL21, purified (Ni-NTA, thrombin cleavage, SEC); not shown: 10x-His, N-terminal, cleaved
binding result [6]: binds

B8: PorXFJ REC + THB domains (1–208) (domain or fragment, UniProt A5FFU4 1-208, looked up)
chain: MDKIRILWVDDEIDLLKPHILFLEKKNYEVTTSNNGLDAIALFEEENFDIVFLDENMPGMSGLETLSEMKEKKSAIPMIMITKSEEEYIMEEAIGSKIADYLIKPVNPNQILLSLKKNLDDSRLITEKTTLDYQKEFRKISMELAMVNSYEDWVELYKKLLFWELKLEDINDQAMIEILESQKVEANSQFGKYIERNYEDWFAPKADK
notes: also called REC + THB domains truncated variant; source: E. coli BL21, purified (Ni-NTA, thrombin cleavage, SEC); not shown: 10x-His, N-terminal, cleaved
binding result [6]: binds

B9: PorXFJ REC domain (1–121) (domain or fragment, UniProt A5FFU4 1-121, looked up)
chain: MDKIRILWVDDEIDLLKPHILFLEKKNYEVTTSNNGLDAIALFEEENFDIVFLDENMPGMSGLETLSEMKEKKSAIPMIMITKSEEEYIMEEAIGSKIADYLIKPVNPNQILLSLKKNLDD
notes: also called REC domain only truncation variant; source: E. coli BL21, purified (Ni-NTA, thrombin cleavage, SEC); not shown: 10x-His, N-terminal, cleaved
binding result [4]: binds
